Results from patent US20160340659A1 (YISSUM RESEARCH AND DEVELOPMENT COMPANY OF THE HEBREW …, published 2016).
Where no end group is shown, it is not given here.

Tests used:
[1] = biological target: T1, actin (Example II solid-phase assay and BIAcore; source not stated) (Oryctolagus cuniculus (Rabbit), UniProt P68135 3-377); assay: SPR, BIAcore 3000, actin amine-coupled to CM5 chip; column heads taken as printed
Procedure: (§1) SPR was performed on a BIAcore 3000 instrument (BIAcore, Uppsala, Sweden). Actin was diluted in 100 mM CH3COONa pH 4.6 to a final concentration of 20 μg/ml (200 μl total) resulting in ˜1 ng immobilized actin on a CM5 BIAcore sensor chip (GE Healthcare Bio-Sciences AB) using the standard BIAcore amine coupling chemistry protocol. The CM5 chip allows four separate flow cells to be operated in the BIAcore 3000 instrument used in these experiments. Coupling is achieved by activating the surface of the sensor chips with equal volumes of 50 mM N-hydroxysuccimide (NHS)/200 mM Nethyl-N-(3-[…])-carboiimide (EDC) (BIAcore, AB, Uppsala, Sweden) to form activated carboxyl groups. An actin solution (15 μg/ml) was run over the chip for 5 min at a rate of 10 μl/min, allowing the amine groups on the protein to react with the activated esters. In the final stage of immobilization, the surface was blocked by 1M ethanol amine, pH 8.0. […] Injections were performed simultaneously over all four channels and blank surface (a plain dextran matrix, channel 1) was used as control. The net signal was obtained by subtracting the blank signal from the signal of the immobilized surface. The association phase for protein or peptides binding to actin was followed for 4 min, and dissociation phases were monitored for 3 min. Surface regeneration between consecutive binding cycles included a 1 min injection of 1 mM NaOH. The response was monitored as a function of time (sensorgram) at 25° C. Multi-concentration data were globally fit using BIA evaluation 3.2 software.

[2] = biological target: T1, actin (Example II solid-phase assay and …); assay: solid-phase actin binding assay: 500 ng actin coated per well, protein in 1:2 dilutions from 500 ng/well, rabbit anti-trT2-49 and goat anti-rabbit IgG-HRP, A655
Procedure: (§2) 96-well plates (MaxiSorp® flat-bottom 96-well plate, Fisher Scientific Inc., Fair Lawn, N.J.) were coated with 500 ng actin in 100 μl carbonate-bicarbonate buffer (pH 9.5) for 1 h at 37° C. The plate was washed once with TBS and then blocked with 3% BSA in 200 μl TBS buffer at 37° C., for 1 h. […] The wells were washed three times with TBST and then incubated with 100 μl goat anti-rabbit IgG-HRP (Jackson ImmunoResearch, West Grove, Pa.) diluted 1:10,000 in TBS, for 1 h at 37° C. Wells were then washed twice with TBST, and once with TBS before 100 μl substrate (1-step Ultra TMB-ELISA, Pierce, Fisher Scientific Inc.) were added. Absorbance at 655 nm was measured 10 min thereafter using a Power Wave 200 Microplate Scanning Spectrophotometer (Bio-Tek Instrument, Winooski, Vt.). Affinity was evaluated by double reciprocal plotting.
To further evaluate the strength of this interaction BIAcore analysis was performed in order to quantify and understand the kinetics of the interaction between these two molecules.

[3] = biological target: T1, actin (Example II solid-phase assay and …); assay: SPR, BIAcore 3000, actin amine-coupled to CM5 chip
Procedure: as §1

[4] = biological target: T1, actin (Example II solid-phase assay and …); assay: not given; presumably the solid-phase actin binding assay of the 29 peptides
[5] = biological target: T1, actin (Example II solid-phase assay and …); assay: solid-phase actin binding assay: 500 ng actin coated per well, peptide in 1:2 dilutions from 500 ng/well, rabbit anti-trT2-49 and goat anti-rabbit IgG-HRP, A655
Procedure: as §2
(§3) For further insight on the actin binding site within the hRNASET2 protein sequence 29 candidate peptides were tested for their ability to bind actin.

[6] = biological target: T1, actin (Example II solid-phase assay and …); assay: solid-phase actin binding assay (ELISA, immobilized actin), double reciprocal plot
Procedure: as §2, §3

[7] = biological target: T1, actin (Example II solid-phase assay and …); assay: solid-phase actin binding assay: 500 ng actin coated per well, protein in 1:2 dilutions from 500 ng/well, rabbit anti-trT2-49 and goat anti-rabbit IgG-HRP, A655; remark: listed apart in the source
Procedure: as §2, §3

[8] = biological target: T1, actin (Example II solid-phase assay and …); assay: as above; remark: listed apart in the source
Procedure: as §2, §3

| Kd [1] [µM] | koff [1] [s⁻¹] | EC50 (read off the curve) [2] [ng/100ul] | kon [3] [M⁻¹ s⁻¹] | binding result [4] | EC50 (read off the curve) [5] [ng/100ul] | Kd [6] [µM] | EC50 (read off the curve) [7] [ng/100ul] | EC50 (read off the curve) [8] [ng/100ul] | Binder |
| --- | --- | --- | --- | --- | --- | --- | --- | --- | --- |
| 19.4 | 0.00969 | ~20 | 500 |  |  |  |  |  | trT2-49m polypeptide (other) EGCNRSWPFNLEEIKDLLPEMRAYWPDVIHSFPNRSRFWKHEWEKHGTCAAQVDALNSQKKYFGRSLELYRADFKDALARVYGVIPKIQCLPPSQDEEVQTIGQIELCLTKQDQQLQNCTEPGEQPSPKQEVWLANGAAESRGLRVCEDGPVFYPPPKKTKH |
|  |  |  |  | no binding |  |  |  |  | KKYFGRSLELYRELDL (also called K108-L123 (16 aa)) [peptide K108-L123] |
| 0.00322 | 3.04 |  |  |  | ~20 | 0.068 |  |  | peptide A103-Q159 (Synthetic peptide of human RNASET2, tested free in solution; also called 22A) peptide: ALNSQKKYFGRSLELYRELDLNSVLLKLGIKPSINYYQVADFKDALARVYGVIPKIQ |
| 7.72 | 0.0132 | ~30 | 1710 |  |  |  | ~30 | ~30 | truncated RNASET2 polypeptide trT2-49 (other, Described as amino acids 49-232 of full length, native RNASET2; also called truncated T2 polypeptide) EGCNRSWPFNLEEIKDLLPEMRAYWPDVIHSFPNRSRFWKHEWEKHGTCAAQVDALNSQKKYFGRSLELYRELDLNSVLLKLGIKPSINYYQVADFKDALARVYGVIPKIQCLPPSQDEEVQTIGQIELCLTKQDQQLQNCTEPGEQPSPKQEVWLANGAAESRGLRVCEDGPVFYPPPKKTKH |
| 14.2 | 0.0458 |  | 3320 |  |  |  |  |  | KKYFGRSLELYRELDLNSVLLKLGIK (not fully specified, Synthetic 26 aa peptide of human RNASET2 (helix 5 and 6), tested free in solution in ELISA and SPR; also called 22B; T2 peptide) [peptide K108-K133] |
